# Source: article PMC4507180
# Substitutions are numbered along the chain they refer to.
# Key:
# [1] = target: DndB protein of Salmonella enterica serovar Cerro 87 (Salmonella enterica serovar Cerro 87); assay: SEC; HiLoad 16/60 Superdex 200; 20 mM Tris-HCl pH 8.0, 150 mM NaCl; 0.7 mL/min; calibrated with myoglobin, ovalbumin, albumin, phosphorylase b, gamma-globulin; native mass 79 kDa
# [2] = target: T1, DndB (Salmonella enterica serovar Cerro 87) (UniProt E2D676); assay: EMSA; conditions: EMSA: 20 mM Tris-HCl pH 8.0, 50 mM KCl, 10 mM MgCl2, 5 mM EDTA, 10 mM DTT, 5% glycerol, room temperature 30 min, 20 nM DNA; footprinting: 25 C 30 min, 200 ng …
# T1 sequence: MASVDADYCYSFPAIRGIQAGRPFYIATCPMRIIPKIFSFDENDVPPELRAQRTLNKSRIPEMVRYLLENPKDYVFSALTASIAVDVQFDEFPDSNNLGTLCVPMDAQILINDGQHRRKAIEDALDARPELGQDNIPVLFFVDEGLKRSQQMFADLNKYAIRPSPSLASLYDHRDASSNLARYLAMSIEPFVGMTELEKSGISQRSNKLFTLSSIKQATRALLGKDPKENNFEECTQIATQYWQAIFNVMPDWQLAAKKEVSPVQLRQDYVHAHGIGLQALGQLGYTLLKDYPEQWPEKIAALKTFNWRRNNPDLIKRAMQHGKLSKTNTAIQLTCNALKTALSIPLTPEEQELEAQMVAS
# [3] = target: T2, DndB C29S C29S (Salmonella enterica serovar Cerro 87) (UniProt E2D676); assay: EMSA; conditions: EMSA: 20 mM Tris-HCl pH 8.0, 50 mM KCl, 10 mM MgCl2, 5 mM EDTA, 10 mM DTT, 5% glycerol, room temperature 30 min, 20 nM DNA; footprinting: 25 C 30 min, 200 ng …
# T2 sequence: T1 sequence with C29S
stoichiometry N [1],Substance,binding [2],binding [3]
2,DndB protein of Salmonella enterica serovar Cerro 87 (natural protein),,
,GCTGTAATCCGTGTAAAAATCGAATGAATTGAGTTACGTGATATTTTACGTAATGCTTAATAAAATTTATAGTTTTTTTTATGTTTTACGTGATTTTTTGCGTACAGGGTTCCATATCTGAGA (double strand) [B1],300 nM,90 nM
